In experiment [1] the target is Factor Xa.
The target in experiment [2] is Neutrophil elastase (UniProt P08246).
Sequence of UniProt P08246 (P08246 30-267): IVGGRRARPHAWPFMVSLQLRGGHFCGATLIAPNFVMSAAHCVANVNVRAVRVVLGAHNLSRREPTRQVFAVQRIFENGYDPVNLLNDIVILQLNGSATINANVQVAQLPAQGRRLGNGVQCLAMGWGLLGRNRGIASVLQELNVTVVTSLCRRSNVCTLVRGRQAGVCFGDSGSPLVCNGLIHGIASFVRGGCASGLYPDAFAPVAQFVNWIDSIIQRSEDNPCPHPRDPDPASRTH

With “Ecotin from Campylobacter rectus, C-terminal His6 fusion (natural protein)”, the cleavage of the FRET peptide Dabcyl-…-Edans by factor Xa with 15 nM ecotin, relative fluorescence units after 60 min (0-60 min followed; 350 RFU without ecotin) in experiment [1] amounted to 48 RFU. Moreover, in experiment [2], the IC50 of inhibition of NE activity (fluorometric NE activity assay, 25 nM NE, 0-50 nM ecotin, 37°C) was 4.49 nM.

Substance “Ecotin from Campylobacter showae, C-terminal His6 fusion (natural protein)” yielded a cleavage of the FRET peptide Dabcyl-…-Edans by factor Xa with 15 nM ecotin, relative fluorescence units after 60 min (0-60 min followed; 350 RFU without ecotin) in experiment [1] of 17.7 RFU. The IC50 of inhibition of NE activity (fluorometric NE activity assay, 25 nM NE, 0-50 nM ecotin, 37°C) in experiment [2] worked out at 4.78 nM.

As for “Ecotin from E. coli, C-terminal His6 fusion (from UniProt P23827 21-162) (natural protein)”, the cleavage of the FRET peptide Dabcyl-…-Edans by factor Xa with 15 nM ecotin, relative fluorescence units after 60 min (0-60 min followed; 350 RFU without ecotin) in experiment [1] was determined as 21.3 RFU. The substance also yielded an IC50 of inhibition of NE activity (fluorometric NE activity assay, 25 nM NE, 0-50 nM ecotin, 37°C) in experiment [2] of 4.64 nM.

The values above are taken from PMC7773321.
